Assay results published in publication doi:10.1101/2023.02.02.526913.
Like-named read-outs stand apart in the source and are kept apart here.

Assays:
Experiment in all cases: cryo-EM structure
[1] = target: microtubules prepared from porcine brain tubulin (porcine) (UniProt P02550)
[2] = target: microtubules prepared from porcine brain tubulin (porcine) (UniProt P02550); remark: listed apart in the source
[3] = target: microtubules prepared from porcine brain tubulin (porcine) (UniProt P02550); remark: listed apart in the source

Sequence of UniProt P02550 (P02550 whole entry, chain 1 of 2): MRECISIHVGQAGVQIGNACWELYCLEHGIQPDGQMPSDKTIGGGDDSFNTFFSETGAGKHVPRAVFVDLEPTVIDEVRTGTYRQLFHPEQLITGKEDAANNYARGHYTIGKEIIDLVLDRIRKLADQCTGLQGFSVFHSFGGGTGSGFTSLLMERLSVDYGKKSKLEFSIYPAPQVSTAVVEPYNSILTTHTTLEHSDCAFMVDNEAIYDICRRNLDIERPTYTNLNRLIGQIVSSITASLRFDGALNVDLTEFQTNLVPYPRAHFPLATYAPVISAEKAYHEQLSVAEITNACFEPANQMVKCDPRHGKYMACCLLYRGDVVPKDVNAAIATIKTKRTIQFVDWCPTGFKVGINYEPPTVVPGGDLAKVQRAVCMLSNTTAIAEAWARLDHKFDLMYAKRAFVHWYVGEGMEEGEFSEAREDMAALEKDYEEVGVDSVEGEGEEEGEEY
Sequence of UniProt P02550 (P02554 whole entry, chain 2 of 2, further chain): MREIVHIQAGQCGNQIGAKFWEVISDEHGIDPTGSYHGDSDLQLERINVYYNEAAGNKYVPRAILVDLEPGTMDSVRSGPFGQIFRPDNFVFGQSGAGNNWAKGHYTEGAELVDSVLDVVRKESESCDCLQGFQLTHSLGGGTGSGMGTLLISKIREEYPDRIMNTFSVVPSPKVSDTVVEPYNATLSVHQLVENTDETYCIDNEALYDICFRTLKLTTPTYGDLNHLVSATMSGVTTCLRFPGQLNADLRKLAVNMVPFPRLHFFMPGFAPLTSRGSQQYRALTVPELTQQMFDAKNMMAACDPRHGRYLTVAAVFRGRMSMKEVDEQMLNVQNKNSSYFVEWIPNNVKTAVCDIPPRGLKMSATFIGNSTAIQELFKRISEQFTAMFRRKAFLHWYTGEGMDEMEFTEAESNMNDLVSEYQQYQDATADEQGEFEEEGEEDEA

decorated fraction of the kinesin sites on tubulin [1] [%]	decorated fraction of the kinesin sites on tubulin [2] [%]	decorated fraction of the kinesin sites on tubulin [3] [%]	Substance
74	32	–	KIF1A(aa1-393)-LZ-strepII (from UniProt Q12756 1-393) (domain or fragment)
–	25	9	KIF1A^P305L (KIF1A(aa1-393, P305L)-LZ-strepII) (from UniProt Q12756 1-393) (domain or fragment)
